Results from US20250026827A1 (Alector, published 2025).
Substitutions are numbered along the chain they refer to.

T1: mouse SIRPα D1-Fc (mouse, UniProt P97797 32-150, limits assumed)
T1 construct: domain: D1
T1 sequence (looked up): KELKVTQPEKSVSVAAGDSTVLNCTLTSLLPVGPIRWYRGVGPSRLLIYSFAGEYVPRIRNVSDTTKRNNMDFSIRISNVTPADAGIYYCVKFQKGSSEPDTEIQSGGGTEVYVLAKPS

T2: mouse SIRPβ1 on CHO cells (mouse)
T2 construct: Whole entry
T2 chain: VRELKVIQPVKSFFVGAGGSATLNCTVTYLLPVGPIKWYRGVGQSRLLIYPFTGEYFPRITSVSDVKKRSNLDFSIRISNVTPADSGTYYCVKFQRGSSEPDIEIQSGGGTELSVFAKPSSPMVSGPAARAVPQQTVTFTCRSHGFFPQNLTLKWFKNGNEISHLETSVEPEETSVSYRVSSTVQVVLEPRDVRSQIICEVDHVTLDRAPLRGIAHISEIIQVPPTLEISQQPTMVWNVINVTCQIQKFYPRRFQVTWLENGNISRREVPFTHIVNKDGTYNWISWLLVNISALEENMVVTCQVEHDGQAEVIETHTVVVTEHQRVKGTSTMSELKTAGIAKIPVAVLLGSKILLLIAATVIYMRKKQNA

T3: mouse SIRPα on cells (mouse, UniProt P97797 32-513)
T3 construct: whole, on cells
T3 sequence (looked up): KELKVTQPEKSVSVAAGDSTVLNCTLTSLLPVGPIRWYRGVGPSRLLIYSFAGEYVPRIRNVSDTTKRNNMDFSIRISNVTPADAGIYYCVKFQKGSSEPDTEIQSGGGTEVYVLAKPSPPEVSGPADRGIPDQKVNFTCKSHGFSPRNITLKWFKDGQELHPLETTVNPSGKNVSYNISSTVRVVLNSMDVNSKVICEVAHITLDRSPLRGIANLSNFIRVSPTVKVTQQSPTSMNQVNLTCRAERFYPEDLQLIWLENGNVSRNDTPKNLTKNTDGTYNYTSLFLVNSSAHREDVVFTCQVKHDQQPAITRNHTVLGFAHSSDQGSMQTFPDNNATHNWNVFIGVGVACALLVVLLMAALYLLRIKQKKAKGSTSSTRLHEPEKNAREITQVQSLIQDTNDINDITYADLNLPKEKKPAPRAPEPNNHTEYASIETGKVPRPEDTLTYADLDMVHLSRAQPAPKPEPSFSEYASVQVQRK

B1: SB-48 (antibody, V domains shown)
VH: QVQLVESGGGVVQPGRSLRLSCAASGFTFSSYGMHWVRQAPGKGLEWVAVISYDGSNKYYADSVKGRFTISRDNSKNTLYLQMNSLRAEDTAVYYCARDGTIAAAGWPPEYFQHWGQGTLVTVSS
VL: DIQMTQSPSSVSASVGDRVTITCRASQGIDSWLAWYQQKPGKAPKLLIYAASSLQSGVPSRFSGSGSGTDFTLTISSLQPEDFATYYCQQASNFPITFGGGTKVEIK
notes: IgG
B2: SB-1-4 (antibody, V domains shown)
VH: QVQLVESGGGVVQPGGSLRLSCAASGFTFSAYGMNWVRQAPGKGLEWVSAIRASGGATYYADSVKGRFTISRDNSKNTLYLQMNSLRAEDTAVYYCAKDFTEVVGWLGMDVWGQGTTVTVSS
VL: EIVMTQSPGTLSLSPGERATLSCRASQSVSSSYLAWYQQKPGQAPRLLIYGASSRATGIPDRFSGSGSGTDFTLTISRLEPEDFAVYYCQLLGSSPRTFGGGTKVEIK
notes: IgG
B3: SB-8-16 (antibody, V domains shown)
VH: QVQLQESGPGLVKPSETLSLTCAVSGYSISAHYYWGWIRQPPGKGLEWIGSIFHSGHTYYNPSLKSRVTISVDTSKNQFSLKLSSVTAADTAVYYCARAGAMTPAGMDVWGQGTTVTVSS
VL: B2 VL with S54N, L91Q, L92V, G93Y, R97Y
notes: IgG
B4: SB-1-5 (antibody, V domains shown)
VH: B2 VH with G16R, R52S, G56R, A57S, Y59F
VL: B2 VL
notes: IgG
B5: SB-2-9 (antibody, V domains shown)
VH: QVQLVESGGGVVQPGRSLRLSCAASGFTFKTYGMHWVRQAPGKGLEWVAHIWYEGSNKVYADSVKGRFTISRDNSKNTLYLQMNSLRAEDTAVYYCARDQTAAAAIWGMDVWGQGTTVTVSS
VL: B2 VL with I2V, M4L, L91Q, L92S, G93S, S95H, R97F
notes: IgG
B6: SB-8-14 (antibody, V domains shown)
VH: B3 VH with A31P, F53Y, A99G
VL: B2 VL with S54N, L91Q, L92V, G93Y, R97Y
notes: IgG
B7: SB-40-18 Fab (Fab, V domains shown)
VH: QVQLVQSGAEVKKPGASVKVSCKASGYTFTSYYMAWVRQAPGQRLEWMGWINPAVGATIYSQKFQGRVTITRDTSASTAYMELSSLRSEDTAVYYCARDTGEYSYSPHGMDVWGQGTTVTVSS
VL: EIVLTQSPATLSLSPGERATLSCRASQSVSSYLAWYQQKPGQAPRLLIYDSSNRATGIPARFSGSGSGTDFTLTISSLEPEDFAVYYCQQRDEHPPWTFGGGTKVEIK
notes: Fab by papain digestion
B8: SB-40-19 Fab (Fab, V domains shown)
VH: QVQLVQSGAEVKKPGASVKVSCKASGYTFTSYYMVWVRQAPGQGLEWMGIINPSSGATNYAQKFQGRVTMTTDTSTSTAYMELRSLRSDDTAVYYCARDTGEYSYSPHGMDVWGQGTTVTVSS
VL: B7 VL
notes: Fab by papain digestion
B9: SB-40-21 Fab (Fab, V domains shown)
VH: B8 VH with A57D, T72R, T76I, R84S, S85R
VL: B7 VL
notes: Fab by papain digestion
B10: SB-40-20 Fab (Fab, V domains shown)
VH: B8 VH with Y32F, M34I, V35S, A57H, F64L, R84S, D89E
VL: B7 VL
notes: Fab by papain digestion
B11: SB-2-7 Fab (Fab, V domains shown)
VH: EVQLLESGGGLVQPGGSLRLSCAASGFTFARYGMHWVRQAPGKGLEWVSAISGLAGPTYADSVKGRFTISRDNSKNTLYLQMNSLRAEDTAVYYCARDQTAAAAIWGMDVWGQGTTVTVSS
VL: B2 VL with I2V, M4L, L91Q, L92S, G93S, S95H, R97F
notes: Fab by papain digestion
B12: SB-1-4 Fab (Fab, V domains shown)
VH: B2 VH
VL: B2 VL
notes: Fab by papain digestion
B13: SB-1-5 Fab (Fab, V domains shown)
VH: B2 VH with G16R, R52S, G56R, A57S, Y59F
VL: B2 VL
notes: Fab by papain digestion
B14: SB-1-2 Fab (Fab, V domains shown)
VH: B2 VH with G16R, S30G, A31S, Y32F, R52T, A57S, Y59F
VL: B2 VL
notes: Fab by papain digestion
B15: SB-2-8 Fab (Fab, V domains shown)
VH: B11 VH with E1Q, L5V, L11V, G16R, A30L, R31D, G53A, L54F, P57S
VL: B2 VL with I2V, M4L, L91Q, L92S, G93S, S95H, R97F
notes: Fab by papain digestion
B16: SB-1-3 Fab (Fab, V domains shown)
VH: B2 VH with Q1E, V11L, Q13K, R52T, A53S, G56R, A57S
VL: B2 VL
notes: Fab by papain digestion
B17: SB-2-11 Fab (Fab, V domains shown)
VH: B11 VH with E1Q, L5V, A103W, A104G
VL: B2 VL with M4L, L91Q, L92S, G93S, S95H, R97F
notes: Fab by papain digestion
B18: SB-2-10 Fab (Fab, V domains shown)
VH: B11 VH with A30G, R31S, P57Q
VL: B2 VL with M4L, L91Q, L92S, G93S, S95H, R97F
notes: Fab by papain digestion
B19: SB-2-9 Fab (Fab, V domains shown)
VH: B5 VH
VL: B2 VL with I2V, M4L, L91Q, L92S, G93S, S95H, R97F
notes: Fab by papain digestion

molecular target: T4, human SIRPα domain 1 (D1) Fc fusion (human, UniProt P78324 32-149); test: Octet
T4 construct: also called human SIRPα D1-Fc; Human SIRPα Fc; not shown: C-terminal human IgG1 Fc

Row | binding result | Binder
1 | no binding (tested: 100 nM) | B1

molecular target: T1, mouse SIRPα D1-Fc; test: Octet

Row | binding result | Binder
2 | no binding (tested: 100 nM) | B1

molecular target: T5, human SIRPα on cells (human, UniProt P78324 31-504); test: flow cytometry
T5 construct: Whole entry

Row | binding result | Binder
3 | no binding (tested: 1 ug/ml) | B2
4 | no binding (tested: 1 ug/ml) | B3
5 | no binding (tested: 1 ug/ml) | B4
6 | no binding (tested: 1 ug/ml) | B5
7 | no binding (tested: 1 ug/ml) | B1

Molecular target: T2, mouse SIRPβ1 on CHO cells
Test: flow cytometry

Row | binding result | Binder
8 | no binding (tested: 1 ug/ml) | B2
9 | no binding (tested: 1 ug/ml) | B3
10 | no binding (tested: 1 ug/ml) | B4
11 | no binding (tested: 1 ug/ml) | B6
12 | no binding (tested: 1 ug/ml) | B5
13 | no binding (tested: 1 ug/ml) | B1

molecular target: T3, mouse SIRPα on cells; test: flow cytometry;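 on FOB: antibodies tested at 1 µg/ml for 30 min on ice against receptor-expressing cells, detected with a PE-labelled secondary antibody, read as mean fluorescence intensity relative to background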

Row | binding result | Binder
14 | no binding (tested: 1 ug/ml) | B1

molecular target: T6, human SIRPβ1 isoform 1 on cells (human, UniProt O00241 30-398); test: flow cytometry
T6 construct: On CHO cells (low level), on BWZ/BW5147.G.1.4 cells (reporter cells co-express human DAP12) or on primary human myeloid cells; also called huSIRPβ1; BWZ-huSIRPβ1
T6 sequence (O00241 30-398): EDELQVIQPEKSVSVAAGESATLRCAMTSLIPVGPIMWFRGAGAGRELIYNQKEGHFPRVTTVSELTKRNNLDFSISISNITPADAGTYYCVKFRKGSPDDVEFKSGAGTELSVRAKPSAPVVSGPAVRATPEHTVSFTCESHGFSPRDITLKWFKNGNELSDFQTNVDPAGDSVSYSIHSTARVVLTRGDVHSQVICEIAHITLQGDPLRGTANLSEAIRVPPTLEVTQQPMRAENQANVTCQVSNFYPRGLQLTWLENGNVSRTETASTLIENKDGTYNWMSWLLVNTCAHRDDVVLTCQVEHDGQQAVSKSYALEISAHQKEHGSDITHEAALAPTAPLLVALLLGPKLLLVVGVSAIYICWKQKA
Method: (§1) Initial characterization of anti-SIRPβ1 antibodies involved determining their ability to bind cell lines expressing human or mouse SIRPβ1. Cells were harvested, plated at 10⁶/ml in a 96-well plate, washed, and incubated in 100 μl FACS buffer containing 1 μg/ml anti-SIRPβ1 antibody for 0.5 hour on ice. Cells were then washed twice and incubated in 100 μl FACS buffer containing 0.5 μg/ml PE-conjugated secondary antibody for 30 minutes on ice. Cells were washed twice in cold FACS buffer and acquired on a BD FACS Canto. Data analysis and calculation of mean fluorescence intensity (MFI) values or 00 positive cells was performed with FlowJo (TreeStar) software version 10.0.7.
(§2) As a negative control, the anti-SIRPβ1 antibodies were also screened for surface binding to CHO cells overexpressing recombinant mouse SIRPβ31. […] Given the high sequence similarity between receptors of the SIRPβ family, anti-SIRPβ1 antibodies were also screened for cross-reactivity to human and mouse SIRPα.

Row | FOB [fold over background] | Binder
15 | 1.7 | B1

molecular target: T5, human SIRPα on cells; test: flow cytometry; remark: another data set of the same source
Method: as §1, §2

Row | FOB [fold over background] | Binder
16 | 2.1 | B1

Molecular target: T2, mouse SIRPβ1 on CHO cells
Test: flow cytometry
Remark: another data set of the same source
Method: as §1, §2

Row | FOB [fold over background] | Binder
17 | 1.1 | B1

molecular target: T3, mouse SIRPα on cells; test: flow cytometry; remark: another data set of the same source;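 on FOB: antibodies tested at 1 µg/ml for 30 min on ice against receptor-expressing cells, detected with a PE-labelled secondary antibody, read as mean fluorescence intensity relative to background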
Method: as §1, §2

Row | FOB [fold over background] | Binder
18 | 2.4 | B1

molecular target: T6, human SIRPβ1 isoform 1 on cells; test: flow cytometry; remark: another data set of the same source
Method: (§3) Cells were then washed twice and incubated in 100 ul FACS buffer containing 0.5 μg/ml PE-conjugated secondary antibody for 30 minutes on ice. Cells were washed twice in cold FACS buffer and acquired on a BD FACS Canto. Data analysis and calculation of mean fluorescence intensity (MFI) values or 00 positive cells was performed with FlowJo (TreeStar) software version 10.0.7.
(§4) Given the high sequence similarity between receptors of the SIRPβ family, anti-SIRPβ1 antibodies were also screened for cross-reactivity to human SIRPα.

Row | FOB [fold over background] | Binder
19 | 3 | B2
20 | 9 | B3
21 | 3 | B4
22 | 7 | B6
23 | 4 | B5

molecular target: T5, human SIRPα on cells; test: flow cytometry; remark: another data set of the same source
Method: as §3, §4

Row | FOB [fold over background] | Binder
24 | 1 | B2
25 | 1 | B3
26 | 1 | B4
27 | 1 | B5

Molecular target: T2, mouse SIRPβ1 on CHO cells
Test: flow cytometry
Remark: another data set of the same source
Method: as §3, §4

Row | FOB [fold over background] | Binder
28 | 1 | B2
29 | 2 | B3
30 | 2 | B4
31 | 1 | B6
32 | 2 | B5

molecular target: T7, human SIRPβ1 domain 1 (D1) Fc fusion (human, UniProt O00241 30-148); test: Octet, IgG avid
T7 construct: Made in HEK293/T cells with a heterologous signal peptide; also called Human SIRPβ1 D1-Fc; Human SIRPβ1-Fc; not shown: C-terminal human IgG1 Fc
T7 sequence (O00241 30-148 limits assumed): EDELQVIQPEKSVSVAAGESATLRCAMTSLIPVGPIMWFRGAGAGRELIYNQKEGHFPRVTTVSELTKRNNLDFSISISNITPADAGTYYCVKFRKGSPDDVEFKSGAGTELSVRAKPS

Row | Kd [nM] | Binder
33 | 27.7 | B1

molecular target: T4, human SIRPα domain 1 (D1) Fc fusion; test: Octet, IgG avid

Row | binding result | Kd [nM] | Binder
34 | no binding (tested: 100 nM) | – | B2
35 | no binding (tested: 100 nM) | – | B3
36 | no binding (tested: 100 nM) | – | B4
37 | – | 18.3 | B6
38 | no binding (tested: 100 nM) | – | B5

molecular target: T7, human SIRPβ1 domain 1 (D1) Fc fusion; test: Octet, Fab monovalent
Method: Briefly, Octet® affinity measurements were performed by loading IgGs on-line onto AHQ sensors. Sensors were equilibrated off-line in assay buffer for 30 min and then monitored on-line for 60 seconds for baseline establishment. For avid binding measurement, sensors with loaded IgGs were exposed to 100 nM antigen (human SIRPα or SIRPβ1 Fc fusion) for 3 min, and then transferred to assay buffer for 3 min for off-rate measurement. Additional avid binding was determined by loading biotinylated SIRPβ1 monomer on SA sensors and exposuring to 100 nM IgG in solution. Monovalent binding measurements were obtained by loading human SIRPβ1 Fc fusion antigens to AHQ sensor, followed by exposure to 100 nM anti-SIRPβ1 antibody Fab. Additional monovalent measurements were made by loading biotinylated human SIRPβ1 monomer to SA sensor followed by exposure to 100 nM Fab in solution. Kinetics data were fit using a 1:1 binding model in the data analysis software provided by ForteBio.

Row | Kd [nM] | Binder
39 | 18.1 | B7
40 | 44.8 | B8
41 | 40.4 | B9
42 | 9.41 | B10
43 | 6.21 | B11
44 | 43.3 | B12
45 | 82.4 | B13
46 | 37.8 | B14
47 | 5.02 | B15
48 | 45.4 | B16
49 | 4.4 | B17
50 | 12.3 | B18
51 | 19.2 | B19

molecular target: T6, human SIRPβ1 isoform 1 on cells; test: cell binding titration; target not given

Row | EC50 [nM] | Binder
52 | 0.073 | B2
53 | 0.147 | B3
54 | 0.038 | B4
55 | 0.304 | B6
56 | 0.469 | B5
